Target: Mouse MHC Class I (mouse B6 class I antigens, H-2^b: D^b or K^b) on RMA-S cells (mouse)
Assay: RMA-S MHC stabilisation, flow cytometry with FITC anti-D^b or anti-K^b

| Binding Affinity to Mouse MHC Class I (percent increase of D^b or K^b on RMA-S cells) [%] | Molecule |
| --- | --- |
| 2 | WT1 peptide P118-126 … |
| 2 | WT1 peptide P119-127 … |
| 1 | WT1 peptide P120-128 … |
| 1 | WT1 peptide P122-130 … |
| 1 | WT1 peptide P123-131 … |
| 1 | WT1 peptide P125-133 … |
| 1 | WT1 peptide P128-136 … |
| 79 | WT1 peptide P130-138 … |
| 79 | WT1 peptide p126-134 … |
| 2 | PSQASSGQA [WT1 peptide P117-125 …] |
| 1 | APYLPSCLE [WT1 peptide P131-139 …] |
| 1 | PNAPYLPSC [WT1 peptide P129-137 …] |
| 1 | QARMFPNAP [WT1 peptide P124-132 …] |
| 2 | MFPNAPYLP [WT1 peptide P127-135 …] |
| 1 | SSGQARMFP [WT1 peptide P121-129 …] |
